Data reported in patent US20090226434A1.

Experiments:
[1] = target: FcγRIIIa (CD16) on Natural Killer (NK) cells (UniProt P08637); assay: FACS on NK cells (CD56+) in PBMCs, antibody 20 µg/ml, FITC anti-human IgG (Fc) detection
[2] = target: wildtype anti-CCR5 antibody (WT Ab, 8% afucosylated); assay: SPR solution competition: soluble CD16a (0-1000 nM) inhibits binding of 10 nM antibody to immobilized His-CD16a
[3] = target: afucosylated anti-CCR5 antibody (afucosylated Ab); assay: as above
[4] = target: Positive Control (Table 3); assay: SPR solution competition: soluble CD16a (0-1000 nM) inhibits binding of 10 nM analyte to immobilized His-CD16a

UniProt P08637, sequence (P08637 17-254 limits assumed): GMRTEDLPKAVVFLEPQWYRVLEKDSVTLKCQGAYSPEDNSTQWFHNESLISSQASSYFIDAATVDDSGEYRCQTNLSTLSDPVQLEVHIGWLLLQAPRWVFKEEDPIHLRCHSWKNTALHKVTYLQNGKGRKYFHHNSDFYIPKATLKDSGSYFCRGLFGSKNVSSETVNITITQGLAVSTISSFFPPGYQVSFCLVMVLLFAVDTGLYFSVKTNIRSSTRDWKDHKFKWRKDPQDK

| Substance | Bmax compared to 100% Bmax for human IgG1 [1] [%] | IC50 [2] [nM] | IC50 [3] [nM] | IC50 [4] [nM] |
| --- | --- | --- | --- | --- |
| human IgG4 (The Binding Site) (antibody) | < 30 | – | – | – |
| soluble CD16a (from UniProt P08637 17-208) (receptor) | – | 14 | 9 | 10 |
